The record followed here is FireProtDB (doi:10.1016/s0022-2836(02)00630-7).

The conditions of this data set: Escherichia coli (strain K12), pH 7, CD, Potassium phosphate 10 mM, reversible: yes.

As to “Phosphocarrier protein HPr wild type, P0AA04”, for the setting “25 °C, Urea”, the denaturant m value came out at 1.06 kcal/mol/M and the “denaturant midpoint (higher = more stable)” value was found to be 4.34 M. Where the note is “Thermal”, the Tm (as a rule, the temperature at which the thermal transition is half complete) came out at 63.4 °C and the “unfolding enthalpy (van 't Hoff)” value is 75.8 kcal/mol.
